What was measured:
[1] = substrate: C[C@H]1CC[C@]2(NC1)O[C@H]1C[C@H]3[C@@H]4CC=C5C[C@@H](O[C@@H]6O[C@H](CO)[C@H](O)[C@H](O[C@@H]7O[C@H](CO)[C@@H](O)[C@H](O)[C@H]7O)[C@H]6O[C@@H]6O[C@@H](C)[C@H](O)[C@@H](O)[C@H]6O)CC[C@]5(C)[C@H]4CC[C@]3(C)[C@H]1[C@@H]2C; assay: purified protein, by the assay type; parameters: LC-MS of product formation by purified recombinant enzyme; Michaelis-Menten nonlinear regression (ANEMONA); conditions: pH 7.2
Procedure: (§1) An in vitro enzyme activity assay was performed using 100 μl of reaction mixture containing 100 mM Bis–Tris–HCl (pH 7.2), 5 mM 2-oxoglutarate, 10 mM sodium ascorbate, 0.2 mM FeSO4, 25 μM substrate, and 1 μg purified recombinant proteins as the enzyme. The reaction was initiated by the addition of the enzyme and was carried out at 30 °C for 30 min. The reaction was then stopped by incubation for 2 min at 90 °C. After centrifugation, 20 μl of supernatant was diluted with 180 μl methanol and filtered through 0.2-μm nylon membrane filters (Acrodisc, Waters). An aliquot (2 μl) was analyzed using LC–MS, as described in “Feeding experiments” above. We determined the kinetic parameters of the recombinant DPS and St7070 in triplicate assays. The assays were conducted as described above, with minor modifications. Briefly, 0.1 μg purified DPS protein or 0.02 μg purified St7070 were used. […] A 20 μl sample of assay mixture was diluted with 180 μl methanol and filtered through 0.2-μm nylon membrane filters (Acrodisc, Waters). An aliquot (2 μl) was analyzed using LC–MS, as described above. The kinetic parameters were determined by nonlinear regression, using the ANEMONA program. Supplementary Fig. 21| Enzyme kinetics of purified recombinant DPS and St7070 with a-solamarine and (22S,25S)-spirosol-5-en-3b-ol. […]

[2] = substrate: C[C@H]1CC[C@]2(NC1)O[C@H]1C[C@H]3[C@@H]4CC=C5C[C@@H](O)CC[C@]5(C)[C@H]4CC[C@]3(C)[C@H]1[C@@H]2C; assay: purified protein, by the assay type; parameters: LC-MS of product formation by purified recombinant enzyme; Michaelis-Menten nonlinear regression (ANEMONA); conditions: pH 7.2
Procedure: as §1

B1: St7070 (Solanum tuberosum) (protein)
chain: MASTKVTIPTIDFFNSELKPNTPQWELTKVQVFEALQEFGCFEAIYNKVPNEIREGMFDTLKEVFDFPLSKLIEYREKPFHIYDGQIPSVPLFGSVYSADLVLPNSVETFANTFWSHGNPNFSNVAKSYFKQLMELNGMVEKMVLESLGLKNYIDEFLNSNVYMSRFTNYKVIKGENENKSGLPSHTDSSYLTIIKQNQNGLQVLYKNGEWIELNHTSPNSYIVLSADALMAWTNDRLTSAQHRVVTTGDKDRFSVQLFSLVNPDYTLKVPKELVDEEHPLMYKPFKMPEYNKYLMLGAKNGLGVKNYCGL
In the case of B1, the Km [1] is reported as 1.7 ± 0.24 µM and the Km [2] is reported as 19.6 ± 0.056 µM.
